Eight molecules from patent US20230029453A1 can be followed below.

The first assay addresses HLA-A*24:02 (human). The experiment in a line: UV peptide exchange; HLA class I ELISA. Particulars: remark: other sources report otherwise. On the technique in general: An ELISA detects its analyte on a solid surface through an enzyme-linked reagent.
For the molecule RAKCKFSIL (here or on the partner: biotinylated heavy chain) [P56 9-mer … (SPOP F102C)], the exchange rate with Pos stood at 0.5%.
Regarding CYLGRQKRF (here or on the partner: biotinylated heavy chain) [P61 9-mer … (FOXA1.p.R261G)], the exchange rate with Pos was 90.3%.
As to RAVRRMNTF (here or on the partner: biotinylated heavy chain) [P17 9-mer … (MSMB-NOCA4 fusion)], the exchange rate with Pos was 0.1%.
As for CPMSRLRLA (here or on the partner: biotinylated heavy chain) [P46 9-mer … (TP53 R213D frameshift)], the exchange rate with Pos is -0.4%.
Regarding IPVLTRWPL (here or on the partner: biotinylated heavy chain) [P19 9-mer … (TMEM222-LOC644061 fusion)], the exchange rate with Pos is 0.1%.
For the molecule QLIAMDSAI (here or on the partner: biotinylated heavy chain) [P22 9-mer … (SLC45A3-ELK4 fusion)], the Average % turned out to be 4.5%, the Exch I (%) amounted to 4.8%, the Exch II (%) was 4.1% and the exchange rate with Pos was 0%.
Turning to RVGNCKHLK (here or on the partner: biotinylated heavy chain) [P82 9-mer … (AR-V7)], the exchange rate with Pos was -0.1%.
As for YCMAAPMGL (here or on the partner: biotinylated heavy chain) [P76 9-mer … (AR-V3)], the exchange rate with Pos is -0.5%.

In the next assay the target is HLA-A*02:01 (human). The experiment in a line: UV peptide exchange; HLA class I ELISA. As to conditions: remark: other sources report otherwise.
For the molecule RAKCKFSIL (here or on the partner: biotinylated heavy chain) [P56 9-mer … (SPOP F102C)], the exchange rate with Pos was 8.4%.
For the molecule CYLGRQKRF (here or on the partner: biotinylated heavy chain) [P61 9-mer … (FOXA1.p.R261G)], the exchange rate with Pos worked out at 5.8%.
On the same count and under the same terms, next, CPMSRLRLA (here or on the partner: biotinylated heavy chain) [P46 9-mer … (TP53 R213D frameshift)]: 14.4%; IPVLTRWPL (here or on the partner: biotinylated heavy chain) [P19 9-mer … (TMEM222-LOC644061 fusion)]: 8.2%.
For QLIAMDSAI (here or on the partner: biotinylated heavy chain) [P22 9-mer … (SLC45A3-ELK4 fusion)], the Average % turned out to be 41.5%, the Exch I (%) stood at 40%, the Exch II (%) was determined as 43.1% and the exchange rate with Pos was found to be 46.9%.
Consider RVGNCKHLK (here or on the partner: biotinylated heavy chain) [P82 9-mer … (AR-V7)], for which the exchange rate with Pos came to 6.3%.
The same measure, in the same setting: next, YCMAAPMGL (here or on the partner: biotinylated heavy chain) [P76 9-mer … (AR-V3)]: 85.9%.

A further assay addresses HLA-B*27:05 (human). The experiment in a line: UV peptide exchange; HLA class I ELISA. As to conditions: remark: other sources report otherwise.
In turn, QLIAMDSAI (here or on the partner: biotinylated heavy chain) [P22 9-mer … (SLC45A3-ELK4 fusion)] returned an Average % of 4.3%, an Exch I (%) of 4.7% and an Exch II (%) of 3.9%.

The next assay addresses HLA-B*08:01 (human). Nature of the assay: UV peptide exchange; HLA class I ELISA. Particulars: remark: other sources report otherwise.
Turning to RAKCKFSIL (here or on the partner: biotinylated heavy chain) [P56 9-mer … (SPOP F102C)], the exchange rate with Pos turned out to be 38%.
Turning to CYLGRQKRF (here or on the partner: biotinylated heavy chain) [P61 9-mer … (FOXA1.p.R261G)], the exchange rate with Pos was determined as 3.6%.
Consider RAVRRMNTF (here or on the partner: biotinylated heavy chain) [P17 9-mer … (MSMB-NOCA4 fusion)], for which the exchange rate with Pos amounted to 9%.
On the same count and under the same terms, next, CPMSRLRLA (here or on the partner: biotinylated heavy chain) [P46 9-mer … (TP53 R213D frameshift)]: 14.5%; IPVLTRWPL (here or on the partner: biotinylated heavy chain) [P19 9-mer … (TMEM222-LOC644061 fusion)]: 14.5%.
QLIAMDSAI (here or on the partner: biotinylated heavy chain) [P22 9-mer … (SLC45A3-ELK4 fusion)]: the Average % was 7.9%, the Exch I (%) turned out to be 8%, the Exch II (%) came to 7.8% and the exchange rate with Pos was found to be 3.9%.
RVGNCKHLK (here or on the partner: biotinylated heavy chain) [P82 9-mer … (AR-V7)]: the exchange rate with Pos amounted to 1.4%.

The next assay deals with HLA-A*03:01 (human). The experiment in a line: UV peptide exchange; HLA class I ELISA. As to conditions: remark: other sources report otherwise.
Take RAKCKFSIL (here or on the partner: biotinylated heavy chain) [P56 9-mer … (SPOP F102C)]: the exchange rate with Pos was determined as 6.8%.
As to RAVRRMNTF (here or on the partner: biotinylated heavy chain) [P17 9-mer … (MSMB-NOCA4 fusion)], the exchange rate with Pos amounted to 3.8%.
Consider CPMSRLRLA (here or on the partner: biotinylated heavy chain) [P46 9-mer … (TP53 R213D frameshift)], for which the exchange rate with Pos stood at 10.3%.
Turning to IPVLTRWPL (here or on the partner: biotinylated heavy chain) [P19 9-mer … (TMEM222-LOC644061 fusion)], the exchange rate with Pos was 4.1%.
Regarding QLIAMDSAI (here or on the partner: biotinylated heavy chain) [P22 9-mer … (SLC45A3-ELK4 fusion)], the exchange rate with Pos turned out to be 4.8%.
On the same count and under the same terms, next, RVGNCKHLK (here or on the partner: biotinylated heavy chain) [P82 9-mer … (AR-V7)]: 58.1%.
Take YCMAAPMGL (here or on the partner: biotinylated heavy chain) [P76 9-mer … (AR-V3)]: the exchange rate with Pos was 6%.

The target in another assay is HLA-B*07:02 (human). Nature of the assay: UV peptide exchange; HLA class I ELISA. Particulars: remark: other sources report otherwise.
Regarding RAKCKFSIL (here or on the partner: biotinylated heavy chain) [P56 9-mer … (SPOP F102C)], the exchange rate with Pos is 82.5%.
Turning to RAVRRMNTF (here or on the partner: biotinylated heavy chain) [P17 9-mer … (MSMB-NOCA4 fusion)], the exchange rate with Pos was determined as 38.7%.
Regarding CPMSRLRLA (here or on the partner: biotinylated heavy chain) [P46 9-mer … (TP53 R213D frameshift)], the exchange rate with Pos worked out at 64.8%.
Consider IPVLTRWPL (here or on the partner: biotinylated heavy chain) [P19 9-mer … (TMEM222-LOC644061 fusion)], for which the exchange rate with Pos was determined as 91.3%.
With QLIAMDSAI (here or on the partner: biotinylated heavy chain) [P22 9-mer … (SLC45A3-ELK4 fusion)], the Average % turned out to be 12%, the Exch I (%) turned out to be 12.2%, the Exch II (%) is 11.8% and the exchange rate with Pos worked out at 8.3%.
As to RVGNCKHLK (here or on the partner: biotinylated heavy chain) [P82 9-mer … (AR-V7)], the exchange rate with Pos is 12.9%.
On the same count and under the same terms, the same measure for YCMAAPMGL (here or on the partner: biotinylated heavy chain) [P76 9-mer … (AR-V3)]: 91.5%.

In a further assay the target is HLA-A*01:01 (human). Nature of the assay: UV peptide exchange; HLA class I ELISA. As to conditions: remark: other sources report otherwise.
As for RAKCKFSIL (here or on the partner: biotinylated heavy chain) [P56 9-mer … (SPOP F102C)], the exchange rate with Pos came out at 2.6%.
For CYLGRQKRF (here or on the partner: biotinylated heavy chain) [P61 9-mer … (FOXA1.p.R261G)], the exchange rate with Pos turned out to be 1.7%.
With RAVRRMNTF (here or on the partner: biotinylated heavy chain) [P17 9-mer … (MSMB-NOCA4 fusion)], the exchange rate with Pos was determined as 4.9%.
Turning to CPMSRLRLA (here or on the partner: biotinylated heavy chain) [P46 9-mer … (TP53 R213D frameshift)], the exchange rate with Pos came to 2.4%.
Same read-out and setting: the same measure for IPVLTRWPL (here or on the partner: biotinylated heavy chain) [P19 9-mer … (TMEM222-LOC644061 fusion)]: 5.2%.
As to QLIAMDSAI (here or on the partner: biotinylated heavy chain) [P22 9-mer … (SLC45A3-ELK4 fusion)], the Average % turned out to be 5%, the Exch I (%) was found to be 5%, the Exch II (%) came to 4.9% and the exchange rate with Pos was determined as 4.4%.
Consider RVGNCKHLK (here or on the partner: biotinylated heavy chain) [P82 9-mer … (AR-V7)], for which the exchange rate with Pos turned out to be 1.5%.
On to YCMAAPMGL (here or on the partner: biotinylated heavy chain) [P76 9-mer … (AR-V3)], for which the exchange rate with Pos was determined as 0.1%.
